Source: patent US20140087995A1 (published 2014)
Numbered stars: 1 amine (or outer) side, 2 acyl side, 3 side chain; on linkers, the order of the positions; unused ones are H or OH. Bridge positions count the residues as written; N and C are the ends. Side chains are listed from the residue outwards. Ends that are not written are not given here. * marks the point of attachment. C20 diacid = O=C(O)CCCCCCCCCCCCCCCCCCC(=O)*; γGlu = O=C(O)[C@H](CCC(=O)[*:2])N[*:1]

T1: human calcitonin receptor (human, UniProt P30988 25-474)
T1 sequence (looked up): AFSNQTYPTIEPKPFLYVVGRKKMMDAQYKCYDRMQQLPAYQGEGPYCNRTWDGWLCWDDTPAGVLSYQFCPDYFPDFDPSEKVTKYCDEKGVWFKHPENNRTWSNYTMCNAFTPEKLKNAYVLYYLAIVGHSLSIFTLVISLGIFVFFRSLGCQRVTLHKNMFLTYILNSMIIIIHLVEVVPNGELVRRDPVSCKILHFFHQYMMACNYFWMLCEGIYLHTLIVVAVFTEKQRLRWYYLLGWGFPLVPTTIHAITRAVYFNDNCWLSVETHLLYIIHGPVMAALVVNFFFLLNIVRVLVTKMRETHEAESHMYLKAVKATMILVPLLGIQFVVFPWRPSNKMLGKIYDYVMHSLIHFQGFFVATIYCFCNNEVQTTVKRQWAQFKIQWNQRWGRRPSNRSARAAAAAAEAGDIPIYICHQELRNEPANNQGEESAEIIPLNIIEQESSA

T2: human amylin receptor (amylin 3(a) receptor: human calcitonin receptor co-expressed with RAMP-3) (human, UniProt P30988 25-474; O60896 24-148, limits assumed)
T2 construct: whole, on cells; Used as cell membranes prepared from the Amylin 3(a)/CRE-luc BHK cells (Assay V); also called hAmylin-R; hAmylinR
T2 sequence (looked up) 1: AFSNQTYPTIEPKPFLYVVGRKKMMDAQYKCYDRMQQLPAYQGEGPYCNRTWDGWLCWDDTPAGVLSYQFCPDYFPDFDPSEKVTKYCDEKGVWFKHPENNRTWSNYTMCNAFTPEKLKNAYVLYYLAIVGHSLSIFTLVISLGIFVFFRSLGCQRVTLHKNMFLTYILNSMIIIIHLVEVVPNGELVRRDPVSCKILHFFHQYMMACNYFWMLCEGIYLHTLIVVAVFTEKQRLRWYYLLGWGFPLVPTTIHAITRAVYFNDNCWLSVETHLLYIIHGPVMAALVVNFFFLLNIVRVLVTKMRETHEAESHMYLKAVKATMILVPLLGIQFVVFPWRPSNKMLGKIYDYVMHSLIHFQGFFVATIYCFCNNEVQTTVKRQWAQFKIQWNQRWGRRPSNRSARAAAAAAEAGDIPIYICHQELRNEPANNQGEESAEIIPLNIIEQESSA
T2 sequence (looked up) 2: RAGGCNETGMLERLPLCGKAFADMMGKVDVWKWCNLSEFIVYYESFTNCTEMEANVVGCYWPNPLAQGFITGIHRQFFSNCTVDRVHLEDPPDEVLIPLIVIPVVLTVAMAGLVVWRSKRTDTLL


Each binder was assayed against T1, human calcitonin receptor (assay: cell-based or functional assay).

Binder | hCTR funct. EC50 (CRE luciferase reporter, BHK cells)
K([γGlu-C20 diacid])CNTATCATQRLAEFLRHSSPNFGAIPSSTNVGPNTP-NH2 (disulfide 2-7; N-terminus assumed; SMILES CC[C@H](C)[C@H](NC(=O)[C@H](C)NC(=O)CNC(=O)[C@H](Cc1ccccc1)NC(=O)[C@H](CC(N)=O)NC(=O)[C@@H]1CCCN1C(=O)[C@H](CO)NC(=O)[C@H](CO)NC(=O)[C@H](Cc1c[nH]cn1)NC(=O)[C@H](CCCNC(=N)N)NC(=O)[C@H](CC(C)C)NC(=O)[C@H](Cc1ccccc1)NC(=O)[C@H](CCC(=O)O)NC(=O)[C@H](C)NC(=O)[C@H](CC(C)C)NC(=O)[C@H](CCCNC(=N)N)NC(=O)[C@H](CCC(N)=O)NC(=O)[C@@H](NC(=O)[C@H](C)NC(=O)[C@@H]1CSSC[C@H](NC(=O)[C@@H](N)CCCCNC(=O)CC[C@H](NC(=O)CCCCCCCCCCCCCCCCCCC(=O)O)C(=O)O)C(=O)N[C@@H](CC(N)=O)C(=O)N[C@@H]([C@@H](C)O)C(=O)N[C@@H](C)C(=O)N[C@@H]([C@@H](C)O)C(=O)N1)[C@@H](C)O)C(=O)N1CCC[C@H]1C(=O)N[C@@H](CO)C(=O)N[C@@H](CO)C(=O)N[C@H](C(=O)N[C@@H](CC(N)=O)C(=O)N[C@H](C(=O)NCC(=O)N1CCC[C@H]1C(=O)N[C@@H](CC(N)=O)C(=O)N[C@H](C(=O)N1CCC[C@H]1C(N)=O)[C@@H](C)O)C(C)C)[C@@H](C)O, Synthetic acylated analogue of human amylin) | 0.09 nM
K([γGlu-C20 diacid])CNTATCATQRLAEFLRHSSPNFGAIPSSTNVGSNTP-NH2 (disulfide 2-7; N-terminus assumed; SMILES CC[C@H](C)[C@H](NC(=O)[C@H](C)NC(=O)CNC(=O)[C@H](Cc1ccccc1)NC(=O)[C@H](CC(N)=O)NC(=O)[C@@H]1CCCN1C(=O)[C@H](CO)NC(=O)[C@H](CO)NC(=O)[C@H](Cc1c[nH]cn1)NC(=O)[C@H](CCCNC(=N)N)NC(=O)[C@H](CC(C)C)NC(=O)[C@H](Cc1ccccc1)NC(=O)[C@H](CCC(=O)O)NC(=O)[C@H](C)NC(=O)[C@H](CC(C)C)NC(=O)[C@H](CCCNC(=N)N)NC(=O)[C@H](CCC(N)=O)NC(=O)[C@@H](NC(=O)[C@H](C)NC(=O)[C@@H]1CSSC[C@H](NC(=O)[C@@H](N)CCCCNC(=O)CC[C@H](NC(=O)CCCCCCCCCCCCCCCCCCC(=O)O)C(=O)O)C(=O)N[C@@H](CC(N)=O)C(=O)N[C@@H]([C@@H](C)O)C(=O)N[C@@H](C)C(=O)N[C@@H]([C@@H](C)O)C(=O)N1)[C@@H](C)O)C(=O)N1CCC[C@H]1C(=O)N[C@@H](CO)C(=O)N[C@@H](CO)C(=O)N[C@H](C(=O)N[C@@H](CC(N)=O)C(=O)N[C@H](C(=O)NCC(=O)N[C@@H](CO)C(=O)N[C@@H](CC(N)=O)C(=O)N[C@H](C(=O)N1CCC[C@H]1C(N)=O)[C@@H](C)O)C(C)C)[C@@H](C)O, Synthetic acylated analogue of human amylin; also called compound 12) | 0.185 nM
K([γGlu-γGlu-C20 diacid])CNTATCATQRLAEFLRHSSPNFGAIPSSTNVGPETP-NH2 (disulfide 2-7; N-terminus assumed; SMILES CC[C@H](C)[C@H](NC(=O)[C@H](C)NC(=O)CNC(=O)[C@H](Cc1ccccc1)NC(=O)[C@H](CC(N)=O)NC(=O)[C@@H]1CCCN1C(=O)[C@H](CO)NC(=O)[C@H](CO)NC(=O)[C@H](Cc1c[nH]cn1)NC(=O)[C@H](CCCNC(=N)N)NC(=O)[C@H](CC(C)C)NC(=O)[C@H](Cc1ccccc1)NC(=O)[C@H](CCC(=O)O)NC(=O)[C@H](C)NC(=O)[C@H](CC(C)C)NC(=O)[C@H](CCCNC(=N)N)NC(=O)[C@H](CCC(N)=O)NC(=O)[C@@H](NC(=O)[C@H](C)NC(=O)[C@@H]1CSSC[C@H](NC(=O)[C@@H](N)CCCCNC(=O)CC[C@H](NC(=O)CC[C@H](NC(=O)CCCCCCCCCCCCCCCCCCC(=O)O)C(=O)O)C(=O)O)C(=O)N[C@@H](CC(N)=O)C(=O)N[C@@H]([C@@H](C)O)C(=O)N[C@@H](C)C(=O)N[C@@H]([C@@H](C)O)C(=O)N1)[C@@H](C)O)C(=O)N1CCC[C@H]1C(=O)N[C@@H](CO)C(=O)N[C@@H](CO)C(=O)N[C@H](C(=O)N[C@@H](CC(N)=O)C(=O)N[C@H](C(=O)NCC(=O)N1CCC[C@H]1C(=O)N[C@@H](CCC(=O)O)C(=O)N[C@H](C(=O)N1CCC[C@H]1C(N)=O)[C@@H](C)O)C(C)C)[C@@H](C)O, Synthetic acylated analogue of human amylin) | 0.102 nM
K([γGlu-γGlu-C20 diacid])CNTATCATQRLAEFLRHSSPNFGAIPSSTNVGSNTP-NH2 (disulfide 2-7 (inferred), Synthetic acylated analogue of human amylin; also called compound 13) | 0.47 nM
K([γGlu-C20 diacid])CNTATCATQRLAHFLRHSSPNFGAIPSSTNVGPNTP-NH2 (disulfide 2-7; N-terminus assumed; SMILES CC[C@H](C)[C@H](NC(=O)[C@H](C)NC(=O)CNC(=O)[C@H](Cc1ccccc1)NC(=O)[C@H](CC(N)=O)NC(=O)[C@@H]1CCCN1C(=O)[C@H](CO)NC(=O)[C@H](CO)NC(=O)[C@H](Cc1c[nH]cn1)NC(=O)[C@H](CCCNC(=N)N)NC(=O)[C@H](CC(C)C)NC(=O)[C@H](Cc1ccccc1)NC(=O)[C@H](Cc1c[nH]cn1)NC(=O)[C@H](C)NC(=O)[C@H](CC(C)C)NC(=O)[C@H](CCCNC(=N)N)NC(=O)[C@H](CCC(N)=O)NC(=O)[C@@H](NC(=O)[C@H](C)NC(=O)[C@@H]1CSSC[C@H](NC(=O)[C@@H](N)CCCCNC(=O)CC[C@H](NC(=O)CCCCCCCCCCCCCCCCCCC(=O)O)C(=O)O)C(=O)N[C@@H](CC(N)=O)C(=O)N[C@@H]([C@@H](C)O)C(=O)N[C@@H](C)C(=O)N[C@@H]([C@@H](C)O)C(=O)N1)[C@@H](C)O)C(=O)N1CCC[C@H]1C(=O)N[C@@H](CO)C(=O)N[C@@H](CO)C(=O)N[C@H](C(=O)N[C@@H](CC(N)=O)C(=O)N[C@H](C(=O)NCC(=O)N1CCC[C@H]1C(=O)N[C@@H](CC(N)=O)C(=O)N[C@H](C(=O)N1CCC[C@H]1C(N)=O)[C@@H](C)O)C(C)C)[C@@H](C)O, Synthetic acylated analogue of human amylin) | 0.04 nM

These binders were tested against T2, human amylin receptor (amylin 3(a) …) (assay: SPA displacement of 125I-rat amylin, hAmylin 3(a) receptor membranes).
Summary of the method: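 SPA beads with BHK Amylin 3(a)/CRE-luc cell membranes (35 ng/μL final) in 50 mM Hepes pH 7.4, 1 mM CaCl2, 5 mM MgCl₂, 0.1% OA, 0.02% Tween20.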

Binder | IC50
K([γGlu-C20 diacid])CNTATCATQRLAAFLRHSSPNFGAIPSSTNVGPNTY-NH2 (disulfide 2-7; N-terminus assumed; SMILES CC[C@H](C)[C@H](NC(=O)[C@H](C)NC(=O)CNC(=O)[C@H](Cc1ccccc1)NC(=O)[C@H](CC(N)=O)NC(=O)[C@@H]1CCCN1C(=O)[C@H](CO)NC(=O)[C@H](CO)NC(=O)[C@H](Cc1c[nH]cn1)NC(=O)[C@H](CCCNC(=N)N)NC(=O)[C@H](CC(C)C)NC(=O)[C@H](Cc1ccccc1)NC(=O)[C@H](C)NC(=O)[C@H](C)NC(=O)[C@H](CC(C)C)NC(=O)[C@H](CCCNC(=N)N)NC(=O)[C@H](CCC(N)=O)NC(=O)[C@@H](NC(=O)[C@H](C)NC(=O)[C@@H]1CSSC[C@H](NC(=O)[C@@H](N)CCCCNC(=O)CC[C@H](NC(=O)CCCCCCCCCCCCCCCCCCC(=O)O)C(=O)O)C(=O)N[C@@H](CC(N)=O)C(=O)N[C@@H]([C@@H](C)O)C(=O)N[C@@H](C)C(=O)N[C@@H]([C@@H](C)O)C(=O)N1)[C@@H](C)O)C(=O)N1CCC[C@H]1C(=O)N[C@@H](CO)C(=O)N[C@@H](CO)C(=O)N[C@H](C(=O)N[C@@H](CC(N)=O)C(=O)N[C@H](C(=O)NCC(=O)N1CCC[C@H]1C(=O)N[C@@H](CC(N)=O)C(=O)N[C@H](C(=O)N[C@@H](Cc1ccc(O)cc1)C(N)=O)[C@@H](C)O)C(C)C)[C@@H](C)O, also called compound 94) | 0.148 nM
K([γGlu-C20 diacid])CNTATCATQRLADFLRHSSPNFGAIPSSTNVGPRTY-NH2 (disulfide 2-7; N-terminus assumed; SMILES CC[C@H](C)[C@H](NC(=O)[C@H](C)NC(=O)CNC(=O)[C@H](Cc1ccccc1)NC(=O)[C@H](CC(N)=O)NC(=O)[C@@H]1CCCN1C(=O)[C@H](CO)NC(=O)[C@H](CO)NC(=O)[C@H](Cc1c[nH]cn1)NC(=O)[C@H](CCCNC(=N)N)NC(=O)[C@H](CC(C)C)NC(=O)[C@H](Cc1ccccc1)NC(=O)[C@H](CC(=O)O)NC(=O)[C@H](C)NC(=O)[C@H](CC(C)C)NC(=O)[C@H](CCCNC(=N)N)NC(=O)[C@H](CCC(N)=O)NC(=O)[C@@H](NC(=O)[C@H](C)NC(=O)[C@@H]1CSSC[C@H](NC(=O)[C@@H](N)CCCCNC(=O)CC[C@H](NC(=O)CCCCCCCCCCCCCCCCCCC(=O)O)C(=O)O)C(=O)N[C@@H](CC(N)=O)C(=O)N[C@@H]([C@@H](C)O)C(=O)N[C@@H](C)C(=O)N[C@@H]([C@@H](C)O)C(=O)N1)[C@@H](C)O)C(=O)N1CCC[C@H]1C(=O)N[C@@H](CO)C(=O)N[C@@H](CO)C(=O)N[C@H](C(=O)N[C@@H](CC(N)=O)C(=O)N[C@H](C(=O)NCC(=O)N1CCC[C@H]1C(=O)N[C@@H](CCCNC(=N)N)C(=O)N[C@H](C(=O)N[C@@H](Cc1ccc(O)cc1)C(N)=O)[C@@H](C)O)C(C)C)[C@@H](C)O) | 0.281 nM
